In patent US9956260:

Columns and labels:
Assay in all cases: cell-based or functional assay
caspase-3 (human) = biological target: T1, caspase-3 (human) (UniProt P42574)
T1 sequence: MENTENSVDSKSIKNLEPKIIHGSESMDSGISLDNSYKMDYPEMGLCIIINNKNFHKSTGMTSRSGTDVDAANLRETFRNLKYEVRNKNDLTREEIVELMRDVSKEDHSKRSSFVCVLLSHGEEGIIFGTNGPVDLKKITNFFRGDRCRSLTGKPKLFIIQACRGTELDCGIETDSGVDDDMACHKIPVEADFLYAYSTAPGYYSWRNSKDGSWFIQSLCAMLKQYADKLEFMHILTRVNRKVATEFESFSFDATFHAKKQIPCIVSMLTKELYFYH

[1] = biological target: HIV-1 gp41 of NL4-3 (WT lab-adapted virus) (HIV-1 (NL4-3))
[2] = biological target: HIV-1 gp41 of WEAU 16-8 (primary virus) (HIV-1 (primary isolate WEAU 16-8))

Substance | decrease in CD4 T-cell death in HIV-infected HLACs (caspase-3 (human)) [%] | percentage of viable CD4 T cells in HIV-1-infected HLACs after 3 days (flow cytometry; inhibitors 20 µM each) (caspase-3 (human)) [%] | viral infection of HLACs (p24gag FLAQ assay, day 9) [1] [µg/mL] | viral infection of HLACs (p24gag FLAQ assay, day 9) (µg/ml (printed 'gi/ml')) [1] | viral infection of HLACs (p24gag FLAQ assay, day 9) [2] [µg/mL]
Z-DEVD-FMK (peptide) | 50 | 50 | – | – | –
enfuvirtide (T20) (peptide) | – | – | > 2 | 10 | 0.1
